Results taken from paper PMC9482650, “Quantitative fragmentomics allow affinity mapping of interactomes” (Nature Communications, 2022).

T1: DFNB31_2, Q9P202
T1 sequence (Q9P202 274-371, limits assumed, looked up): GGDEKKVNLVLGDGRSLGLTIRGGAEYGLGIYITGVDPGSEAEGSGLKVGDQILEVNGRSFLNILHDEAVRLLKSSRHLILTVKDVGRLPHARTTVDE

T2: DLG3_2, Q92796
T2 sequence (Q92796 221-321, limits assumed, looked up): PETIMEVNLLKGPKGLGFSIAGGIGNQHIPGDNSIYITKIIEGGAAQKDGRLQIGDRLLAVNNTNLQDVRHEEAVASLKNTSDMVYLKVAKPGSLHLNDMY

T3: DLG3_3, Q92796
T3 sequence (Q92796 374-475, limits assumed, looked up): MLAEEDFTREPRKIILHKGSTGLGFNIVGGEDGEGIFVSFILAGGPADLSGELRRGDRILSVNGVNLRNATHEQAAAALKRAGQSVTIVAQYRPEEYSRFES

T4: GRIP1_2, Q9Y3R0
T4 sequence (Q9Y3R0 145-248, limits assumed, looked up): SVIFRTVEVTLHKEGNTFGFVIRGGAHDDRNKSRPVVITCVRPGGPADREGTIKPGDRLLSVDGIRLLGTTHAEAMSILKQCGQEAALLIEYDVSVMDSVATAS

T5: GRIP1_4, Q9Y3R0
T5 sequence (Q9Y3R0 467-571, limits assumed, looked up): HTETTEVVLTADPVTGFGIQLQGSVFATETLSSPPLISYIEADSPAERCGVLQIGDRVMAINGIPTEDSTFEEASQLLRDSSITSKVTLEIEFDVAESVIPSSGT

T6: HTRA3, P83110
T6 sequence (P83110 354-453, limits assumed, looked up): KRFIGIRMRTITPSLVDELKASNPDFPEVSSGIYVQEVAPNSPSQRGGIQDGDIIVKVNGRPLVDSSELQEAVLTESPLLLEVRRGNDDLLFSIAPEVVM

T7: LIN7B, Q9HAP6
T7 sequence (Q9HAP6 88-185, limits assumed, looked up): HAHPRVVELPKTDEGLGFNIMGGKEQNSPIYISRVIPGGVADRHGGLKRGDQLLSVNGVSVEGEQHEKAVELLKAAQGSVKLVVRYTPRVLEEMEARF

T8: MPDZ_10, O75970
T8 sequence (O75970 1624-1722, limits assumed, looked up): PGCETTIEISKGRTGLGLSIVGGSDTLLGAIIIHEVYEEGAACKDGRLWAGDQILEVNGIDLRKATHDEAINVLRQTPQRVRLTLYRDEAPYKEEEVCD

T9: PARD3B_1, Q8TEW8
T9 sequence (Q8TEW8 196-299, limits assumed, looked up): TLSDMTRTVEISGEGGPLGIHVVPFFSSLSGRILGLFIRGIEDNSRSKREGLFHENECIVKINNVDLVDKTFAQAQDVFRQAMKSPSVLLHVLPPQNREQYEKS

T10: PTPN13_1, Q12923
T10 sequence (Q12923 1088-1188, limits assumed, looked up): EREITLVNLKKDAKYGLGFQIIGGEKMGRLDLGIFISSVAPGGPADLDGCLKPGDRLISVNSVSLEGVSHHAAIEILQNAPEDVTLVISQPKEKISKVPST

T11: RHPN1, Q8TCX5
T11 sequence (Q8TCX5 508-602, limits assumed, looked up): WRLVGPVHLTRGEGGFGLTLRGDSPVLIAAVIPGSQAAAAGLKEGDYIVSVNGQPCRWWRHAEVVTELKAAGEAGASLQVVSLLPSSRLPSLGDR

T12: SYNJ2BP, P57105
T12 sequence (P57105 8-110, limits assumed, looked up): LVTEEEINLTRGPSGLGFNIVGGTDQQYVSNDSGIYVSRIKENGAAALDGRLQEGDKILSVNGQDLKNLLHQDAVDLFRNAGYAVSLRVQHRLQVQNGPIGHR


molecular target: T1, DFNB31_2, Q9P202; assay: holdup assay; design: key: below the threshold = too weak to quantify, mostly under pKd 3.1 to 4; settings: plain residues with an end cap or a label only (N-terminal biotin on a linker: ado-ado)

Row | Binder | pKd
1 | SSSVNVSSNL [CXCR1, P25024] | below the threshold
2 | KKTPVSRSHL [SLC22A3, O75751] | below the threshold

molecular target: DLG2_2, Q15700; assay: holdup assay; design: key: below the threshold = too weak to quantify, mostly under pKd 3.1 to 4; settings: plain residues with an end cap or a label only (N-terminal biotin on a linker: ado-ado)
Sequence (Q15700 189-283): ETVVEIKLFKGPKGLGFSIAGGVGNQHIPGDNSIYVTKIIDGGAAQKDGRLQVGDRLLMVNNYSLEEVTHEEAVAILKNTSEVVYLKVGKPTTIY

Row | Binder | pKd
3 | SSSVNVSSNL [CXCR1, P25024] | below the threshold
4 | KKTPVSRSHL [SLC22A3, O75751] | below the threshold

molecular target: T2, DLG3_2, Q92796; assay: holdup assay; design: key: below the threshold = too weak to quantify, mostly under pKd 3.1 to 4; settings: plain residues with an end cap or a label only (N-terminal biotin on a linker: ado-ado)

Row | Binder | pKd
5 | SSSVNVSSNL [CXCR1, P25024] | below the threshold
6 | KKTPVSRSHL [SLC22A3, O75751] | below the threshold

molecular target: T3, DLG3_3, Q92796; assay: holdup assay; design: key: below the threshold = too weak to quantify, mostly under pKd 3.1 to 4; settings: plain residues with an end cap or a label only (N-terminal biotin on a linker: ado-ado)

Row | Binder | pKd
7 | SSSVNVSSNL [CXCR1, P25024] | below the threshold
8 | KKTPVSRSHL [SLC22A3, O75751] | below the threshold

molecular target: DLG4_2, P78352; assay: holdup assay; design: key: below the threshold = too weak to quantify, mostly under pKd 3.1 to 4; settings: plain residues with an end cap or a label only (N-terminal biotin on a linker: ado-ado)
Sequence (P78352 155-259): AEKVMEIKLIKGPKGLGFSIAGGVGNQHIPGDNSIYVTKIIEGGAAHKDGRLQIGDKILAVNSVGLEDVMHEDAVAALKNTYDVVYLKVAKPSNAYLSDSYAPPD

Row | Binder | pKd
9 | SSSVNVSSNL [CXCR1, P25024] | below the threshold
10 | KKTPVSRSHL [SLC22A3, O75751] | below the threshold

molecular target: GORASP2, Q9H8Y8; assay: holdup assay; design: key: below the threshold = too weak to quantify, mostly under pKd 3.1 to 4; settings: plain residues with an end cap or a label only (N-terminal biotin on a linker: ado-ado)

Row | Binder | pKd
11 | SSSVNVSSNL [CXCR1, P25024] | below the threshold
12 | KKTPVSRSHL [SLC22A3, O75751] | below the threshold

molecular target: T4, GRIP1_2, Q9Y3R0; assay: holdup assay; design: key: below the threshold = too weak to quantify, mostly under pKd 3.1 to 4; settings: plain residues with an end cap or a label only (N-terminal biotin on a linker: ado-ado)

Row | Binder | pKd
13 | SSSVNVSSNL [CXCR1, P25024] | below the threshold
14 | KKTPVSRSHL [SLC22A3, O75751] | below the threshold

molecular target: T5, GRIP1_4, Q9Y3R0; assay: holdup assay; design: key: below the threshold = too weak to quantify, mostly under pKd 3.1 to 4; settings: plain residues with an end cap or a label only (N-terminal biotin on a linker: ado-ado)

Row | Binder | pKd
15 | SSSVNVSSNL [CXCR1, P25024] | below the threshold
16 | KKTPVSRSHL [SLC22A3, O75751] | below the threshold

molecular target: HTRA1, Q92743; assay: holdup assay; design: key: below the threshold = too weak to quantify, mostly under pKd 3.1 to 4; settings: plain residues with an end cap or a label only (N-terminal biotin on a linker: ado-ado)
Sequence (Q92743 360-477): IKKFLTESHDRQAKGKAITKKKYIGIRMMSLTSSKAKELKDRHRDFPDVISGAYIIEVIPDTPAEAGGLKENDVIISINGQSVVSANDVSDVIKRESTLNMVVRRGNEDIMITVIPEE

Row | Binder | pKd
17 | SSSVNVSSNL [CXCR1, P25024] | below the threshold
18 | KKTPVSRSHL [SLC22A3, O75751] | 3.61

molecular target: T6, HTRA3, P83110; assay: holdup assay; design: key: below the threshold = too weak to quantify, mostly under pKd 3.1 to 4; settings: plain residues with an end cap or a label only (N-terminal biotin on a linker: ado-ado)

Row | Binder | pKd
19 | SSSVNVSSNL [CXCR1, P25024] | below the threshold
20 | KKTPVSRSHL [SLC22A3, O75751] | below the threshold

molecular target: IL16_1, Q14005; assay: holdup assay; design: key: below the threshold = too weak to quantify, mostly under pKd 3.1 to 4; settings: plain residues with an end cap or a label only (N-terminal biotin on a linker: ado-ado)
Sequence (Q14005 210-306): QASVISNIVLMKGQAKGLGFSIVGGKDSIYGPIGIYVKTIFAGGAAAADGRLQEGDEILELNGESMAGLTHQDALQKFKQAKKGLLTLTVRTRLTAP

Row | Binder | pKd
21 | SSSVNVSSNL [CXCR1, P25024] | below the threshold
22 | KKTPVSRSHL [SLC22A3, O75751] | below the threshold

molecular target: Inadl_10, Q8NI35; assay: holdup assay; design: key: below the threshold = too weak to quantify, mostly under pKd 3.1 to 4; settings: plain residues with an end cap or a label only (N-terminal biotin on a linker: ado-ado)
Sequence (Q8NI35 1673-1763): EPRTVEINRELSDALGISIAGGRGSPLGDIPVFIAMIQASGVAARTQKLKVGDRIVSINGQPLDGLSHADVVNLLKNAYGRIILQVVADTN

Row | Binder | pKd
23 | SSSVNVSSNL [CXCR1, P25024] | below the threshold
24 | KKTPVSRSHL [SLC22A3, O75751] | below the threshold

molecular target: Inadl_5, Q8NI35; assay: holdup assay; design: key: below the threshold = too weak to quantify, mostly under pKd 3.1 to 4; settings: plain residues with an end cap or a label only (N-terminal biotin on a linker: ado-ado)
Sequence (Q8NI35 673-780): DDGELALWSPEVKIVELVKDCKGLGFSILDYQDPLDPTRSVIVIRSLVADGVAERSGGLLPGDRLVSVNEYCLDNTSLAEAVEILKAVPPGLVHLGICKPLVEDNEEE

Row | Binder | pKd
25 | SSSVNVSSNL [CXCR1, P25024] | below the threshold
26 | KKTPVSRSHL [SLC22A3, O75751] | below the threshold

molecular target: Inadl_9, Q8NI35; assay: holdup assay; design: key: below the threshold = too weak to quantify, mostly under pKd 3.1 to 4; settings: plain residues with an end cap or a label only (N-terminal biotin on a linker: ado-ado)
Sequence (Q8NI35 1530-1615): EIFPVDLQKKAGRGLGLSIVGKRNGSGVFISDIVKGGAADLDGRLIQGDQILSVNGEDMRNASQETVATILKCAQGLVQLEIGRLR

Row | Binder | pKd
27 | SSSVNVSSNL [CXCR1, P25024] | below the threshold
28 | KKTPVSRSHL [SLC22A3, O75751] | below the threshold

molecular target: LAP2, Q96RT1; assay: holdup assay; design: key: below the threshold = too weak to quantify, mostly under pKd 3.1 to 4; settings: plain residues with an end cap or a label only (N-terminal biotin on a linker: ado-ado)
Sequence (Q96RT1 other isoform, or with tags, fused parts or gaps): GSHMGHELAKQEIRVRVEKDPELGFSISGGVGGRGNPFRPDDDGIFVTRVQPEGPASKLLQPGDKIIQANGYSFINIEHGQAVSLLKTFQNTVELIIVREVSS

Row | Binder | pKd
29 | SSSVNVSSNL [CXCR1, P25024] | below the threshold
30 | KKTPVSRSHL [SLC22A3, O75751] | below the threshold

molecular target: T7, LIN7B, Q9HAP6; assay: holdup assay; design: key: below the threshold = too weak to quantify, mostly under pKd 3.1 to 4; settings: plain residues with an end cap or a label only (N-terminal biotin on a linker: ado-ado)

Row | Binder | pKd
31 | SSSVNVSSNL [CXCR1, P25024] | 3.58
32 | KKTPVSRSHL [SLC22A3, O75751] | below the threshold

molecular target: T8, MPDZ_10, O75970; assay: holdup assay; design: key: below the threshold = too weak to quantify, mostly under pKd 3.1 to 4; settings: plain residues with an end cap or a label only (N-terminal biotin on a linker: ado-ado)

Row | Binder | pKd
33 | SSSVNVSSNL [CXCR1, P25024] | below the threshold
34 | KKTPVSRSHL [SLC22A3, O75751] | below the threshold

molecular target: NHERF4_4, Q86UT5; assay: holdup assay; design: key: below the threshold = too weak to quantify, mostly under pKd 3.1 to 4; settings: plain residues with an end cap or a label only (N-terminal biotin on a linker: ado-ado)
Sequence (Q86UT5 464-550): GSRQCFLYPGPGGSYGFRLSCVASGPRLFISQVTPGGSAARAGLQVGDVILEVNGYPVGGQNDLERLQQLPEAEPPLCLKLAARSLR

Row | Binder | pKd
35 | SSSVNVSSNL [CXCR1, P25024] | below the threshold
36 | KKTPVSRSHL [SLC22A3, O75751] | below the threshold

molecular target: NOS1, P29475; assay: holdup assay; design: key: below the threshold = too weak to quantify, mostly under pKd 3.1 to 4; settings: plain residues with an end cap or a label only (N-terminal biotin on a linker: ado-ado)
Sequence (P29475 9-101): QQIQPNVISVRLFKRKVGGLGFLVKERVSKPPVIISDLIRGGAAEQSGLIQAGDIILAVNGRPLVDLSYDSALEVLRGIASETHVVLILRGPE

Row | Binder | pKd
37 | SSSVNVSSNL [CXCR1, P25024] | below the threshold
38 | KKTPVSRSHL [SLC22A3, O75751] | below the threshold

molecular target: T9, PARD3B_1, Q8TEW8; assay: holdup assay; design: key: below the threshold = too weak to quantify, mostly under pKd 3.1 to 4; settings: plain residues with an end cap or a label only (N-terminal biotin on a linker: ado-ado)

Row | Binder | pKd
39 | SSSVNVSSNL [CXCR1, P25024] | 3.72
40 | KKTPVSRSHL [SLC22A3, O75751] | below the threshold

molecular target: T10, PTPN13_1, Q12923; assay: holdup assay; design: key: below the threshold = too weak to quantify, mostly under pKd 3.1 to 4; settings: plain residues with an end cap or a label only (N-terminal biotin on a linker: ado-ado)

Row | Binder | pKd
41 | SSSVNVSSNL [CXCR1, P25024] | below the threshold
42 | KKTPVSRSHL [SLC22A3, O75751] | below the threshold

molecular target: T11, RHPN1, Q8TCX5; assay: holdup assay; design: key: below the threshold = too weak to quantify, mostly under pKd 3.1 to 4; settings: plain residues with an end cap or a label only (N-terminal biotin on a linker: ado-ado)

Row | Binder | pKd
43 | SSSVNVSSNL [CXCR1, P25024] | 3.67
44 | KKTPVSRSHL [SLC22A3, O75751] | below the threshold

molecular target: T12, SYNJ2BP, P57105; assay: holdup assay; design: key: below the threshold = too weak to quantify, mostly under pKd 3.1 to 4; settings: plain residues with an end cap or a label only (N-terminal biotin on a linker: ado-ado)

Row | Binder | pKd
45 | SSSVNVSSNL [CXCR1, P25024] | below the threshold
46 | KKTPVSRSHL [SLC22A3, O75751] | below the threshold

molecular target: TJP1_3, Q07157; assay: holdup assay; design: key: below the threshold = too weak to quantify, mostly under pKd 3.1 to 4; settings: plain residues with an end cap or a label only (N-terminal biotin on a linker: ado-ado)
Sequence (Q07157 416-512): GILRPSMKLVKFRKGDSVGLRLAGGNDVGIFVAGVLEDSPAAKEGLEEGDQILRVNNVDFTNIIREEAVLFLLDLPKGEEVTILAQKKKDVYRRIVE

Row | Binder | pKd
47 | SSSVNVSSNL [CXCR1, P25024] | below the threshold
48 | KKTPVSRSHL [SLC22A3, O75751] | below the threshold

molecular target: TJP2_1, Q9UDY2; assay: holdup assay; design: key: below the threshold = too weak to quantify, mostly under pKd 3.1 to 4; settings: plain residues with an end cap or a label only (N-terminal biotin on a linker: ado-ado)
Sequence (Q9UDY2 24-128): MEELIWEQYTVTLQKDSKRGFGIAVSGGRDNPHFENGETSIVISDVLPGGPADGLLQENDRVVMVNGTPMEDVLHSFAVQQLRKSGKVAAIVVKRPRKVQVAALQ

Row | Binder | pKd
49 | SSSVNVSSNL [CXCR1, P25024] | below the threshold
50 | KKTPVSRSHL [SLC22A3, O75751] | below the threshold
